Measured values published in patent publication US20200041497, “ANALYTE DETECTION METHOD” (IMPERIAL COLLEGE INNOVATIONS LIMITED, published 2020).

Legend:
alpha-thrombin [1] = target: T1, alpha-thrombin (Homo sapiens, UniProt P00734;P00734 P00734:328-363,P00734:364-622); assay: EMSA; 200 nM TBA, 0-500 nM thrombin; 50 mM Tris, 140 mM NaCl, 1 mM MgCl2 pH 7.4
[2] = target: acetylcholinesterase (AChE) (UniProt O42275 O42275:24-633); assay: EMSA; AChE 660 nM, modified aptamer 0-5000 nM; 2.7 mM KCl, 4 mM MgCl2 PBS pH 7.4, 1 h; settings: tags: Sigma-Aldrich, UK; M.W. 280 kDa as stated; chain copies: 4; aptamer with extension hybridised to lambda-DNA 3' end
Protocol: FIG. 20: Electrophoretic mobility shift assay (EMSA) to confirm the binding of the aptamers to thrombin and AChE targets. All gels shown above include a 25 bp ladder and indicated as M in the gel. (i) Thrombin (750 nM) was incubated with different concentration of modified TBA aptamer (top left) ranging from 0-5000 nM in 140 mM NaCl, 20 mM MgCl2, 20 mM PBS buffer pH 7.4 for 45 mins. The 7 lanes on the gel represent the following concentrations of aptamer (from left to right): 0, 50, 100, 250, 500, 1000 and 5000 nM. The samples were then loaded on a 10% native polyacrylamide cast gel and ran for 75 min at 80V and stained with SYBR gold and imaged under UV. […] (ii) modified TBA (200 nM) was then incubated with different concentration of thrombin in the same binding buffer as (i) for 45 min. The […] consist of different thrombin concentration from left to right: 0, 250, 500, 1000, 1500, 2500, 5000 and 7500 nM. The samples were then loaded to a 10% native polyacrylamide cast gels and ran for 75 min at 80V and stained with SYBR gold and imaged. (iii) AChE (660 nM) was incubated with different concentration of modified AChE aptamer ranging from 0-5000 nM in 2.7 mM KCl, 4 mM MgCl2 PBS buffer pH 7.4 for 1 hour. […]

alpha-thrombin [3] = target: T1, alpha-thrombin; assay: nanopore translocation on lambda-DNA carrier; 100 mM KCl, 10 mM Tris, 1 mM EDTA pH 8

acetylcholinesterase (AChE), sequence (O42275 24-633, one chain of several): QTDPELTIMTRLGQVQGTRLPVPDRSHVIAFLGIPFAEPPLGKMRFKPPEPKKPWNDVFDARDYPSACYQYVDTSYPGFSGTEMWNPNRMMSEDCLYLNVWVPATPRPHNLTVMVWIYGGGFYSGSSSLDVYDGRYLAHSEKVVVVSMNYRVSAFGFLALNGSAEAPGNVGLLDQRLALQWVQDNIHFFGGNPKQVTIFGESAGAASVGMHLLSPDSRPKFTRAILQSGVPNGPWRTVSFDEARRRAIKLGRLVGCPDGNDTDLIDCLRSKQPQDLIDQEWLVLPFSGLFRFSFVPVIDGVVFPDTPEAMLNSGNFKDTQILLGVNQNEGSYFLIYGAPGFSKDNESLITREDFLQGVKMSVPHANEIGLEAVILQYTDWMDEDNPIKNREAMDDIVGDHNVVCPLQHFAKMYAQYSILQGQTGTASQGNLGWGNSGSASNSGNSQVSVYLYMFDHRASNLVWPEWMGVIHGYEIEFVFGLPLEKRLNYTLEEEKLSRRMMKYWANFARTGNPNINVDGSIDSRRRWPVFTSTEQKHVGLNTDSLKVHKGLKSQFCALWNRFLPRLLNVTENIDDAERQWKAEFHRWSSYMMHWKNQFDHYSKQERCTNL

GGTTGGTGTGGTTGG (ssDNA) [TBA 15-mer]
binding result (alpha-thrombin [1]): binds

B1: AChE detection probe (75-mer) (ssDNA)
DNA: GGTTGACTGTAGCTCTGGCAGACGTAGTGTGAAGGTACCGGGCGGCGACCTAAGGTGTCGTGCGTAAGTTTTTAA
binding result [2]: binds

B2: TBA detection probe ii (51-mer) (ssDNA)
DNA: GGTTGGTGTGGTTGGGGGCGGCGACCTAAGGTGTCGTGCGTAAGTTTTTAA
binding result (alpha-thrombin [3]): binds

B3: TBA detection probe iii (69-mer) (ssDNA)
DNA: GGTTGGTGTGGTTGGTTTTTTTTTGTCTTTTTTTTTTTTCTGTTTTTAAAAACTTACGCACGACACCTT
binding result (alpha-thrombin [3]): binds
